In US20080081047A1 (published 2008):
Changes are numbered by the printed parent chain.

B1: F26G18 (antibody, V domains shown)
VH: LVQLEESGTVLPRPGASVKMSCKASGYTFTSYWMHWVKQRPGQGLEWIGAIYPGNSDTNYNQKFKGRATLTAVTSTSTASMELSSLTNEDSAVYYCTRDGYGSLYYYAMDFWGQGTSVTVSS
VL: ELVMTQSPSSLSASLGDRVTISCRASQDISNYLNWYQQKPDGTVKLLIYYTSRLHAGVPSRFSGSGSGTDYSLTISNLEQEDIATYFCQQGYTLPYTFGGGTKLEIKR
B2: F26G19 (antibody, V domains shown)
VH: EVQLEESGTVLARPGASVKMSCKASGYTFTTYRMHWIKQRPGQGLEWIGAIYPGNSDTTYNQKFKDKAKLTAVTSTSSAYMELSSLTNEDSAVYFCTREGIPQLLRTLDYWGQGTSVTVSS
VL: DILMTQSPSSLSASLGERVSLTCRASQEISGYLSWLQEKPDGTIKRLIYAASTLDSGVPKRFSGSRSGSDYSLTISSLESEDFADYYCLQYVSYPWTFGGGTKLEIKR
B3: F26G6 (antibody, V domains shown)
VH: QVQLQQPGAELVKPGASVKVSCKASGYTFTNYWIHWVKQRPGQGLEWIGEINPGNGRTNYNGNFMNKATLTVDKSSNTAYMQLSSLTSEDSAVYHCARLDYWGQGTTLTVSS
VL: ELVMTQSPASLSVATGKKVTIRCISSTDIDDDMNWYQQKAGKPPKLLISEGNIFSPGVPSRFSSSGNGTDFVFTVENTLSEDVADNYCLQSDNMPFTFGSGTKLGIKR
B4: F26G8 (antibody, V domains shown)
VH: VQLLESGAELVKPGASVKVSCKASGYTFTSYWIHWVKQRPGQGLEWIGEINPSNGRTNYNGNFESKATLTVDKSSNTAYMHLSSLTYEDSAVYHCTRLDYWGQGTTLTVSS
VL: B3 VL with A14I, S26N, M33L, Y36S, Q38L, K42E, V75I, D85N, L89F, G105E

What was measured:
[1] = molecular target: T1, SARS-HCoV spike protein (SARS-coronavirus (Tor-3 strain), UniProt P59594 14-1255); experiment: ELISA, virus heated 100 C 10 min, coated at 32 ng/well
[2] = molecular target: T1, SARS-HCoV spike protein; experiment: ELISA, native gradient purified virus coated at 32 ng/well
[3] = molecular target: T1, SARS-HCoV spike protein; experiment: ELISA, OD on native virus against OD on heat-denatured virus

Binder	ELISA OD 405 nm, Denatured Lysate [1] [OD 405 nm]	ELISA OD 405 nm, Viral Lysate (native) [2] [OD 405 nm]	O.D. Reduction, Fold [3] [fold]	O.D. Reduction, Percent [3] [%]
B1	0.501	1.81	3.6	72
B2	0.253	1.5	6	83
B3	0.6	1.6	2.7	62
B4	0.497	1.41	2.8	29
